Three molecules from paper PMC12205649 can be followed below.

For orientation: stoichiometry N means a count of units in the complex or per binding partner. Usually Kd stands for the free concentration of one partner at which half of the binding sites on the other are occupied at equilibrium, for simple one-to-one binding. Lower therefore signals higher affinity. A word on the koff: it is the rate constant with which the complex falls apart. The low end stands for slow dissociation, the high end for fast dissociation.

For one test, the target named is E. coli CsgC (E. coli) (UniProt P52107).
Test [1] deals with E. coli CsgA, freshly purified monomer (E. coli) (UniProt P28307). Description: native MS; ion mobility-mass spectrometry (nESI, Synapt G2); CsgA and CsgC each diluted to 20 μM and mixed 1:1 in 20 mM ammonium acetate pH 7.4, incubated at 37 °C, time points 0, 3, 6 and 23 h.
The target of test [2] is E. coli CsgA fibrils (sonicated amyloid fibres of WT CsgA) (E. coli) (UniProt P28307). In words: SPR; BIAcore 3000, CM5 chip; sonicated CsgA fibrils amine-coupled at 1300 RU; gel-filtered CsgC injected 5 min at 4 to 0.25 μM (two-fold dilutions); phosphate buffer pH 7.5, 0.05% Tween, 25 °C; fitted with Scrubber2. (In SPR one partner is held on a chip, and binding of the other changes the refractive index at the surface.)

Test [3] concerns the target T1, E. coli CsgC (E. coli), P52107.
T1 chain: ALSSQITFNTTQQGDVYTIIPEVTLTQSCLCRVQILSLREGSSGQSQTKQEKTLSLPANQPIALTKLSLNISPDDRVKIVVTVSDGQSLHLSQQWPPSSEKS
Description: native MS; ion mobility-mass spectrometry (nESI, Synapt G2); CsgA and CsgC each diluted to 20 μM and mixed 1:1 in 20 mM ammonium acetate pH 7.4, incubated at 37 °C, time points 0, 3, 6 and 23 h. Particulars: remark: other sources report otherwise.

In the test with E. coli CsgC (E. coli), “E. coli CsgA, freshly purified monomer (from UniProt P28307 21-151) (natural protein)” returned a ThT binding assay: increase in lag time of CsgA eluted from the CsgC-linked column compared with CsgA eluted from the Tris-quenched column of 51 min and a ThT binding assay: increase in time to half maximum ThT fluorescence of CsgA eluted from the CsgC-linked column compared with CsgA eluted from the Tris-quenched column of 52 min.
In turn, “E. coli CsgC (from UniProt P52107 9-110) (natural protein)” showed a stoichiometry N in test [1] of 1. In test [2], the Kd worked out at 360 nM and the koff was determined as 0.00118 s⁻¹.

B1: E. coli CsgC, P52107 9-110 (natural protein)
chain: T1 chain
As for B1, the stoichiometry N in test [3] came out at 2.
